Measured values from patent publication US20180037644A1 (Pfizer, published 2018).

How the values were obtained:
IL-1β = IL-1β (UniProt P01584 117-269); assay: SPR (Biacore T200), Fab captured on the chip, cytokine injected
Source text: The panel of cytokines included IL-1α, IL-1β, IL-18, IL-36α, and IL-36γ.

human IL-33 (mm2) [1] = molecular target: T1, human IL-33 (mm2) (human, UniProt O95760 112-270); assay: SPR, biotinylated IL-33 on streptavidin sensor, Fab in solution
T1 construct: Variant in which all four cysteine residues are serine; the entry carries an N-terminal Met and a C-terminal His6; Biotinylated in some assays; also called hIL-33 (mm2); huIL-33 (mm2)
T1 chain: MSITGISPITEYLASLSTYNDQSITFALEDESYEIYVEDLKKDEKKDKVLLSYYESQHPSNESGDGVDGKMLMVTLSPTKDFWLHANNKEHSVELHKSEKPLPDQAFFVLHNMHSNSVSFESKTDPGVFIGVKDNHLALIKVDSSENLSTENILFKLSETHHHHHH
Experimental: (§1) Fab fragment affinity was measured by two methods, surface plasmon resonance using a BIAcore instrument, with either Fab or IL-33 captured on the chip, and solution equilibrium affinity measurements using a KinExA instrument, with both Fab and IL-33 in solution.
(§2) Surface plasmon resonance experiments were conducted in two formats.

human IL-33 (mm2) [2] = molecular target: T1, human IL-33 (mm2); assay: SPR, biotinylated IL-33 on streptavidin sensor, Fab in solution; immobilized IL-33 (mm2); Fab in solution
Experimental: as §2

human IL-33 WT (R&D) [3] = molecular target: T2, human IL-33 WT (R&D) (human, UniProt O95760 112-270); assay: SPR, Fab captured by anti-human Fab kit, reduced IL-33 (R&D) in solution; captured Fab, reduced WT IL-33 in solution
T2 construct: R&D Systems Cat. No. 3625-IL/CF, wild-type cysteines; DTT pretreatment in some assays is said under assay or readout; also called IL-33 (R&D); hIL-33 (R&D)
T2 sequence: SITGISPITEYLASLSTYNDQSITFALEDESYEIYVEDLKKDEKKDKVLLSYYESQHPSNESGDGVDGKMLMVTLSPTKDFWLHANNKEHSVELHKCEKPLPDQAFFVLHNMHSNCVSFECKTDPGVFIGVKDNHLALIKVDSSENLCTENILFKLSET

human IL-33 (mm2) [4] = molecular target: T1, human IL-33 (mm2); assay: SPR, IL-33 amine-coupled to CM5, Fab in solution, 37 C
Experimental: (§3) Biacore kinetic assays were conducted at 37° C. at a collection rate of 1 Hz on a Biacore T200 instrument (GE Healthcare). Human IL33 (mm2), cynomolgus monkey IL-33, and reduced huIL33 wt were covalently coupled to a CM5 sensor chip (catalogue number BR100530, GE Healthcare) using an amine coupling kit (catalogue number BR100050, GE Healthcare) according to the manufacturer's protocol. […] The dilution and running buffer was HBS-EP+(10 mM HEPES pH 7.4, 0.15M NaCl, 3 mM EDTA, 0.05% P-20). Rate constants and affinities were determined by fitting the resulting sensorgram data to a 1:1 model in Biacore T200 Evaluation software version 1.0 (GE Healthcare).

[5] = molecular target: T3, human IL-33 WT, reduced with DTT (human, UniProt O95760 112-270); assay: as above
T3 construct: Wild-type cysteines, FLAG tag in the entry; reduced with 3 mM DTT before use; also called huIL33 wt; hu IL-33 (WT + DTT)
T3 sequence: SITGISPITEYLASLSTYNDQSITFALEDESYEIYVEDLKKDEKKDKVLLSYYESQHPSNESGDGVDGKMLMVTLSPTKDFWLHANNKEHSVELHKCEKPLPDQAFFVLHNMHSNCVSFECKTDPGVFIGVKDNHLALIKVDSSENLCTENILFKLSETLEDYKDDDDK
Experimental: as §3

[6] = molecular target: T4, cynomolgus monkey IL-33 (cys mut) (cynomolgus monkey); assay: as above
T4 construct: Variant in which the three cysteine residues are serine; N-terminal Met and C-terminal His6 in the entry; also called cyno IL-33; cyno IL-33 (cys mut)
T4 chain: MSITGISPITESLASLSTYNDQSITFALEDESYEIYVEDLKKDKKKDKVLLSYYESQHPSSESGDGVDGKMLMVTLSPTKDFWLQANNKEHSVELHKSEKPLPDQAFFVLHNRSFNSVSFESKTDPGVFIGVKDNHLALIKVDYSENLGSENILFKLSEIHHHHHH
Experimental: as §3

human IL-33 WT (R&D) [7] = molecular target: T2, human IL-33 WT (R&D); assay: SPR, Fab captured by anti-human Fab kit, reduced IL-33 (R&D) in solution
Experimental: as §1, §2

human IL-33 (mm2) [8] = molecular target: T1, human IL-33 (mm2); assay: KinExA, fixed-antigen format, both partners in solution
Experimental: (§4) HuIL33 wt was reduced in 3 mM DTT for a minimum of two hrs prior to use. Affinity determinations were made at room temperature using the fixed antigen assay format. Equilibrium binding was achieved by incubation at 25° C. for 72 hrs. Data analysis was performed with the KinExA Pro software version 3.6.5 (Sapidyne). […] The “drift correction” was used when appropriate. Multiple curves were obtained, both receptor and KD controlled, in independent experiments and analyzed using the “n-curve analysis” tool to obtain global best fit values for the KD and active concentration. The software reports each best fit value along with a 95% confidence interval.
(§5) Table 13. Affinity determinations were made using the fixed-antigen assay format. […] The 95% confidence interval, shown in parentheses with the kD, and percent error are calculated by KinExA software based on a least-squares fit of the theoretical binding equation to the measured signals.

[9] = molecular target: T3, human IL-33 WT, reduced with DTT; assay: as above
Experimental: as §4, §5

- binding result (IL-1β): no binding
- Kd (human IL-33 (mm2) [1]): 3.06 pM
- koff (human IL-33 (mm2) [1]): 1.68e-05 s⁻¹
- kon (human IL-33 (mm2) [2]): 5.47e+06 M⁻¹ s⁻¹
- kon (human IL-33 WT (R&D) [3]): 2.06e+06 M⁻¹ s⁻¹
- Kd (human IL-33 (mm2) [4]): 15.5 pM
- koff (human IL-33 (mm2) [4]): 4.17e-05 s⁻¹
- kon (human IL-33 (mm2) [4]): 2.74e+06 M⁻¹ s⁻¹
- Kd [5]: 19.1 pM
- koff [5]: 5.79e-05 s⁻¹
- kon [5]: 3.05e+06 M⁻¹ s⁻¹
- Kd [6]: 14.4 pM
- koff [6]: 4.07e-05 s⁻¹
- kon [6]: 2.81e+06 M⁻¹ s⁻¹
- Kd (human IL-33 WT (R&D) [7]): 290 pM
- koff (human IL-33 WT (R&D) [7]): 0.000377 s⁻¹
- Kd (human IL-33 (mm2) [8]): 0.351 pM
- Kd [9]: 4.04 pM
B1: 7E8 CDR graft Fab (Fab, V domains shown)
VH: EVQLVESGGGLVQPGGSLRLSCAASGFTFSSYWMYWVRQAPGKGLEWVASITPNGGNTYYPDSVKGRFTISRDNAKNSLYLQMNSLRAEDTAVYYCARGHYYYTSYSLGYWGQGTLVTVSS
VL: DIQMTQSPSSLSASVGDRVTITCKASQNINKHLDWYQQKPGKAPKLLIYFTNNLQTGVPSRFSGSGSGTDFTLTISSLQPEDFATYYCFQYNNGWTFGGGTKVEIKR
notes: also called 7E8 Fab; CDR grafted-7E8 Fab
